Assay results taken from US20120183532A1.

Molecular target: IL-1β receptor of the hepatic sinusoidal endothelium (HSE) cells (mouse) (UniProt P13504)
Assay: cell-based or functional assay

Sequence of UniProt P13504 (P13504 20-576): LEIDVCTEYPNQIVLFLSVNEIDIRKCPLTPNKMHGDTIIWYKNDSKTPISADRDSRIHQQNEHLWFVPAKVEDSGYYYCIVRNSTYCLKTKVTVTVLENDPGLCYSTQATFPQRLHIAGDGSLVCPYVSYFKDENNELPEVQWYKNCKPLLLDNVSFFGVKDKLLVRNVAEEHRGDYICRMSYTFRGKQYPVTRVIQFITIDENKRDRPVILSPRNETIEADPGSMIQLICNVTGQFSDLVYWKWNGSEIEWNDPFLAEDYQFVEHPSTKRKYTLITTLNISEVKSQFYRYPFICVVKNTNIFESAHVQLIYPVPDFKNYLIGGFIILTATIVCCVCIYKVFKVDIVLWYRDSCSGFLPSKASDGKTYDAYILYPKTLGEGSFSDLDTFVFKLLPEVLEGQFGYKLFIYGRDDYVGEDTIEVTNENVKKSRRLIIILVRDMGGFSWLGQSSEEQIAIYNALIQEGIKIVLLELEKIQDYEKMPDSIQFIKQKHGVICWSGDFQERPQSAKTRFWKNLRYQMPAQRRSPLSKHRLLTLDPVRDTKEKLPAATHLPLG

Substance “recombinant C. albicans Kre9 (CaKre9) protein expressed in E. coli, fused to an HSV tag and 6 histidine residues (from UniProt O74226 22-271)” has an increase of the tumor adhesion (B16M cells) to the HSE with respect to the control of over 150%.
